Experimental data from article PMC4447274, “Gene Regulation by the LiaSR Two-Component System in Streptococcus mutans” (PLoS ONE, 2015).

Experiments:
[1] = biological target: T1, His-LiaR (Streptococcus mutans UA159) (UniProt Q8DVJ8); test: EMSA; conditions: 20 mM Tris-Cl pH 7.5, 100 mM NaCl, 0.01 mM DTT, 5% glycerol, 1 mM EDTA, 0.01 mg/ml BSA, 5 mM MgCl2, 10 ug/ml poly(dI-dC), 30 min (EMSA); BLI in binding buffer …
T1 sequence: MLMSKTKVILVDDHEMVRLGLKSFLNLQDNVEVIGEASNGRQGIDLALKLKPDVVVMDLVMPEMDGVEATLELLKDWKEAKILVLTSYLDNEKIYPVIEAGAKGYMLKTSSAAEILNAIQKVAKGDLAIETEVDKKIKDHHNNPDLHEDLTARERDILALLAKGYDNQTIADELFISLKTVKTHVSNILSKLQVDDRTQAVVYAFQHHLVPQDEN

LiaR = biological target: T2, LiaR (Streptococcus mutans, UniProt Q8DVJ8); test: Phos-Tag SDS-PAGE mobility shift (phosphorylation of LiaR); assay type: biochemical; conditions: 20 mM MnCl2, 50 mM Tris-Cl, 50 mM KCl, 1 mM DTT, pH 7.5, 37 °C, 1 h, phosphodonor, covalent phosphorylation
T2 construct: gene SMU_487; ORF from start codon, N-terminal His tag, E. coli BL21, Ni-NTA (pASK-IBA43+, pIBE11)

[2] = biological target: T3, His-LiaR-D58A D58A (Streptococcus mutans UA159) (UniProt Q8DVJ8); test: EMSA; conditions: 20 mM Tris-Cl pH 7.5, 100 mM NaCl, 0.01 mM DTT, 5% glycerol, 1 mM EDTA, 0.01 mg/ml BSA, 5 mM MgCl2, 10 ug/ml poly(dI-dC), 30 min (EMSA); BLI in binding buffer …
T3 sequence: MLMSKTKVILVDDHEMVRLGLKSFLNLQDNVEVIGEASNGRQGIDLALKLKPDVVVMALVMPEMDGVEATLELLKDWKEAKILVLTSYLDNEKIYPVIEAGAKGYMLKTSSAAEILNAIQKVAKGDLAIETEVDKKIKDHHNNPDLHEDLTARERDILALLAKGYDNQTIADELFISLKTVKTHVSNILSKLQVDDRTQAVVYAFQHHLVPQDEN

[3] = biological target: T1, His-LiaR (Streptococcus mutans UA159); test: competition; conditions: 20 mM Tris-Cl pH 7.5, 100 mM NaCl, 0.01 mM DTT, 5% glycerol, 1 mM EDTA, 0.01 mg/ml BSA, 5 mM MgCl2, 10 ug/ml poly(dI-dC), 30 min (EMSA); BLI in binding buffer …
His-LiaR [4] = biological target: T4, His-LiaR (Streptococcus mutans UA159, UniProt Q8DVJ8 1-215); test: BLI; 1 uM LiaR; 20 mM Tris-Cl pH 7.5, 100 mM NaCl, 0.01 mM DTT, 5% glycerol, 1 mM EDTA, 0.01 mg/ml BSA, 5 mM MgCl2, 10 ug/ml poly(dI-dC), 30 min (EMSA); BLI in binding buffer; conditions: protein: recombinant; tags: N-terminal His; chain copies: 2; label: 32P end label (EMSA); 3' biotin on one strand (BLI)
His-LiaR [5] = biological target: T4, His-LiaR; test: BLI; 1 uM LiaR; Req reduced 3-fold; 20 mM Tris-Cl pH 7.5, 100 mM NaCl, 0.01 mM DTT, 5% glycerol, 1 mM EDTA, 0.01 mg/ml BSA, 5 mM MgCl2, 10 ug/ml poly(dI-dC), 30 min (EMSA); BLI in binding buffer; conditions: protein: recombinant; tags: N-terminal His; chain copies: 2; label: 32P end label (EMSA); 3' biotin on one strand (BLI)
His-LiaR [6] = biological target: T4, His-LiaR; test: EMSA; 15-30 pmol LiaR; 20 mM Tris-Cl pH 7.5, 100 mM NaCl, 0.01 mM DTT, 5% glycerol, 1 mM EDTA, 0.01 mg/ml BSA, 5 mM MgCl2, 10 ug/ml poly(dI-dC), 30 min (EMSA); BLI in binding buffer; conditions: protein: recombinant; tags: N-terminal His; chain copies: 2; label: 32P end label

**Q.** “ATTACCAATGTGAATCGTGTGGTCAAGTTTATCAAAGAAAAAGACGAATGAATACGAAAAAATACGCTTGTGGCAACTGCCATGGAAAATTAAGACATCAAAATCAGTCGTAAGGCTGATTTTATTCTTCTCTAAATAGTTTATACTAATAGCATCATGAGATTTGTGATTCATTTTTTAAAAAAGGGAGAGTTGTTTGT (double strand) [PSMU.753]” was tested. Which binding [1] did it give?
**A.** Its binding is “binds”.

**Q.** For “AGCTTAGTTATCATACATCAATCTTATACAGTCTTAATCCTAGACGGATACAAGTTTGATAACAAAAAAGTTATCTCTTCAAACAAGGAGGCTGAGGCAAGAACCTTAAACTTATAAATATAATAACTACAACATATGAGTATACCTGCATTAGATAACATTATTATCAACAGATCATAAACATAACTTGAATTGACATG (double strand) [PSMU.485 (Plia)]”, which binding [1] is on record?
**A.** Its binding is “no binding”.

**Q.** How did the binding [1] turn out when “CTTGTTTGAAGAGATAACTTTTTTGTTATCAAACTTGTATCCGTCTAGGATTAAGACTGTATAAGATTGATGTATGATAACTAAGCTATGGCGTCTTTGATATTTGAAAAATTCTCTTTATCTTTAGTGTTATTTGGTCTAGATCAAGAGGTGAAATTTATCCTAAATTTTGATACAATGACTAATAATTGTAGAACTGAAGGAAGCCTTATG (double strand) [Alternative PSMU.485]” was run?
**A.** The binding was “no binding”.

**Q.** How did the binding [1] turn out when “CCTAAGTCCACCTCCCATCTTTAATCAATAGAGTTAGCACTCTTAACAGACGACTGCTAACTTCATAATTCCATTATACTCCATTCCTAATTTCTGTCAAGAGAAAAATACAAAAAATTAGCACTCTTTCTGCTTGAGTGCTAAAAATCCGACTTAAGACTTAGTTTTATTGCTGT (double strand) [PhrcA]” was run?
**A.** The binding was “binds”.

**Q.** For `CC(=O)OP(=O)(O)O` [Ac-Po4, acetyl phosphate], which “Phos-Tag SDS-PAGE mobility shift (phosphorylation of LiaR)” value (LiaR; 50 mM acetyl phosphate) is on record?
**A.** Its value is “The wild-type protein readily acquired phosphate from both acetyl phosphate and phosphoamidate”.

**Q.** With “TTAATTGAGGAAGATAATACTGAAGAAAAACAGTCTTCTAAAGAAAAAGAAACTGATGAGAAAGCTGACAAAAACCTTGTTTTAGAGCTGGATGATACAATTGAGCTTGAAGATTAAATAAAAATAGGTCCCAAGACCGACTCTTTATTTAATAAGCTATGCTAAGATAATATTATCCTGTAAGGAAAGAGAGATTTAAAC (double strand) [PSMU.2084]” as the molecule, how does the binding [1] read?
**A.** The binding was “binds”.

**Q.** What about the binding [2] of the same molecule?
**A.** The binding was “no binding”.

**Q.** What about the binding [3] of the same molecule?
**A.** The binding was “binds”.

**Q.** How did the binding [1] turn out when “GTTTATTCAAGAAATTCGCAAAGGTCCATCTCCTTTTTCTAAAGTCACTTATGTTGACGTCAATATAGCAAATTTTTCTGATTACCATGATTTCAGAATGGCCAATTAATTTATCTCAAAATCATTCTCAAGAACTATTGAGTATTTTACTAAAAAACAGTAAAATAGATAGGTATTATTAAAATCAAAGGAAGATTATC (double strand) [PSMU.1727]” was run?
**A.** The binding was “binds”.

**Q.** With `NP(=O)(O)O` [PA, phosphoamidate] as the molecule, how does the “Phos-Tag SDS-PAGE mobility shift (phosphorylation of LiaR)” value (LiaR; 20 mM phosphoamidate) read?
**A.** Its value is “The wild-type protein readily acquired phosphate from both acetyl phosphate and phosphoamidate”.

B1: A23G/T25C consensus (dsDNA)
DNA 1: ATCAAAATCAGTCTCAAGACCGGTC
DNA 2: GACCGGTCTTGAGACTGATTTTGAT
**Q.** B1 was tested. Which binding signal (His-LiaR [4]) did it give?
**A.** The binding signal was ~1.5 fold reduction of Rmax and Req vs consensus.

B2: C13A/A17G consensus (dsDNA)
DNA 1: ATCAAAATCAGTATCAGGACCGATT
DNA 2: AATCGGTCCTGATACTGATTTTGAT
**Q.** For B2, which binding signal (His-LiaR [5]) is on record?
**A.** The binding signal was ~4 fold reduction of Rmax vs consensus.

B3: IR only (16-bp) (dsDNA)
DNA 1: TCAGTCTCAAGACCGATT
DNA 2: AATCGGTCTTGAGACTGA
**Q.** Does B3 bind (His-LiaR [6])?
**A.** Result: no binding
